From paper PMC8648464

What was measured:
[1] = molecular target: T1, E. coli single-stranded DNA binding protein (SSB) (Escherichia coli, UniProt P0AGE0 1-178); assay: competition
[2] = molecular target: T1, E. coli single-stranded DNA binding …; assay: single-molecule free solution hydrodynamic separation
[3] = molecular target: T1, E. coli single-stranded DNA binding …; assay: competition; remark: listed apart in the source
[4] = molecular target: T1, E. coli single-stranded DNA binding …; assay: single-molecule free solution hydrodynamic separation; remark: listed apart in the source

T1 sequence (P0AGE0 whole entry): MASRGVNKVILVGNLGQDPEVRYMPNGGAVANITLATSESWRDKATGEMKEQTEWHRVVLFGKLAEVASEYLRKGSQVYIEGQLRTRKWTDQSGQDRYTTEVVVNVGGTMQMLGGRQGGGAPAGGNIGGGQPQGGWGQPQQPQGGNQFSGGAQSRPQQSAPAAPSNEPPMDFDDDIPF

| Binder | Kd [1] | Kd [2] | Kd [3] | Kd [4] |
| --- | --- | --- | --- | --- |
| TTTTTTTTTTTTTTTTTTTTTTTTTTTTTTTTTTT (ssDNA) [35nt poly(dT)] | 11.7 ± 0.6 nM | 10 ± 0.5 nM |  |  |
| 70nt poly(dT) (ssDNA) DNA: TTTTTTTTTTTTTTTTTTTTTTTTTTTTTTTTTTTTTTTTTTTTTTTTTTTTTTTTTTTTTTTTTTTTTT |  |  | 22.1 ± 1.5 nM | 21.7 ± 0.2 nM |
